# Experimental data as given in PMC10039853.
# Columns and labels:
# hen egg lysozyme, P00698 [1] = test: ELISA; details: chain shown with the change;, read off a plot
# hen egg lysozyme, P00698 [2] = test: SPR; details: chain shown with the change;, read off a plot
# hen egg lysozyme, P00698, sequence (P00698 19-147): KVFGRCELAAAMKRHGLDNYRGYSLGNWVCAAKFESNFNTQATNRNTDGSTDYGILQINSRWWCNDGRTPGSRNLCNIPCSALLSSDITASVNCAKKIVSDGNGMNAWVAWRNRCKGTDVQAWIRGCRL
Binder,"EC50 (hen egg lysozyme, P00698 [1]; parent: est. 0.92) [µg/mL]","Kd (hen egg lysozyme, P00698 [2]; parent: est. 3.1e-12) [nM]","Kd (hen egg lysozyme, P00698 [2]; parent: est. 3.3 pM) [nM]","EC50 (hen egg lysozyme, P00698 [1]; parent: est. 0.90) [µg/mL]"
"anti-lysozyme VHH D3-L11, wild type A79S (protein) DVQLVESGGGSVQAGGSLRLSCAASGSTDSIEYMTWFRQAPGKAREGVAALYTHTGNTYYTDSVKGRFTISQDKAKNMSYLRMDSVKSEDTAIYTCGATRKYVPVRFALDQSSYDYWGQGTQVTVSS",7.6,0.012,–,–
"anti-lysozyme VHH D3-L11, wild type A79F (protein) DVQLVESGGGSVQAGGSLRLSCAASGSTDSIEYMTWFRQAPGKAREGVAALYTHTGNTYYTDSVKGRFTISQDKAKNMFYLRMDSVKSEDTAIYTCGATRKYVPVRFALDQSSYDYWGQGTQVTVSS",–,0.012,0.012,–
"anti-lysozyme VHH D3-L11, wild type A24L (protein) DVQLVESGGGSVQAGGSLRLSCALSGSTDSIEYMTWFRQAPGKAREGVAALYTHTGNTYYTDSVKGRFTISQDKAKNMAYLRMDSVKSEDTAIYTCGATRKYVPVRFALDQSSYDYWGQGTQVTVSS",–,–,0.045,–
"anti-lysozyme VHH D3-L11, wild type A79T (protein) DVQLVESGGGSVQAGGSLRLSCAASGSTDSIEYMTWFRQAPGKAREGVAALYTHTGNTYYTDSVKGRFTISQDKAKNMTYLRMDSVKSEDTAIYTCGATRKYVPVRFALDQSSYDYWGQGTQVTVSS",–,0.013,–,–
"anti-lysozyme VHH D3-L11, wild type A79Q (protein) DVQLVESGGGSVQAGGSLRLSCAASGSTDSIEYMTWFRQAPGKAREGVAALYTHTGNTYYTDSVKGRFTISQDKAKNMQYLRMDSVKSEDTAIYTCGATRKYVPVRFALDQSSYDYWGQGTQVTVSS",9.5,0.0072,–,–
"anti-lysozyme VHH D3-L11, wild type A79W (protein) DVQLVESGGGSVQAGGSLRLSCAASGSTDSIEYMTWFRQAPGKAREGVAALYTHTGNTYYTDSVKGRFTISQDKAKNMWYLRMDSVKSEDTAIYTCGATRKYVPVRFALDQSSYDYWGQGTQVTVSS",1900,0.015,–,–
"anti-lysozyme VHH D3-L11, wild type G97F (protein) DVQLVESGGGSVQAGGSLRLSCAASGSTDSIEYMTWFRQAPGKAREGVAALYTHTGNTYYTDSVKGRFTISQDKAKNMAYLRMDSVKSEDTAIYTCFATRKYVPVRFALDQSSYDYWGQGTQVTVSS",–,–,0.0062,3.2
"anti-lysozyme VHH D3-L11, wild type A79H (protein) DVQLVESGGGSVQAGGSLRLSCAASGSTDSIEYMTWFRQAPGKAREGVAALYTHTGNTYYTDSVKGRFTISQDKAKNMHYLRMDSVKSEDTAIYTCGATRKYVPVRFALDQSSYDYWGQGTQVTVSS",120,0.023,–,–
"anti-lysozyme VHH D3-L11, wild type A79R (protein) DVQLVESGGGSVQAGGSLRLSCAASGSTDSIEYMTWFRQAPGKAREGVAALYTHTGNTYYTDSVKGRFTISQDKAKNMRYLRMDSVKSEDTAIYTCGATRKYVPVRFALDQSSYDYWGQGTQVTVSS",31,0.026,–,–
"anti-lysozyme VHH D3-L11, wild type A79N (protein) DVQLVESGGGSVQAGGSLRLSCAASGSTDSIEYMTWFRQAPGKAREGVAALYTHTGNTYYTDSVKGRFTISQDKAKNMNYLRMDSVKSEDTAIYTCGATRKYVPVRFALDQSSYDYWGQGTQVTVSS",6.7,0.0081,–,–
"anti-lysozyme VHH D3-L11, wild type G26I (protein) DVQLVESGGGSVQAGGSLRLSCAASISTDSIEYMTWFRQAPGKAREGVAALYTHTGNTYYTDSVKGRFTISQDKAKNMAYLRMDSVKSEDTAIYTCGATRKYVPVRFALDQSSYDYWGQGTQVTVSS",–,–,0.026,–

# Continued by falling Kd (hen egg lysozyme, P00698 [2]; parent: est. 3.1e-12), values first:
"EC50 (hen egg lysozyme, P00698 [1]; parent: est. 0.92) [µg/mL]","Kd (hen egg lysozyme, P00698 [2]; parent: est. 3.1e-12) [nM]","Kd (hen egg lysozyme, P00698 [2]; parent: est. 3.3 pM) [nM]","EC50 (hen egg lysozyme, P00698 [1]; parent: est. 0.90) [µg/mL]",Binder
4.2,0.0068,–,–,"anti-lysozyme VHH D3-L11, wild type A79M (protein) DVQLVESGGGSVQAGGSLRLSCAASGSTDSIEYMTWFRQAPGKAREGVAALYTHTGNTYYTDSVKGRFTISQDKAKNMMYLRMDSVKSEDTAIYTCGATRKYVPVRFALDQSSYDYWGQGTQVTVSS"
1.5,0.0067,–,–,"anti-lysozyme VHH D3-L11, wild type A79L (protein) DVQLVESGGGSVQAGGSLRLSCAASGSTDSIEYMTWFRQAPGKAREGVAALYTHTGNTYYTDSVKGRFTISQDKAKNMLYLRMDSVKSEDTAIYTCGATRKYVPVRFALDQSSYDYWGQGTQVTVSS"
–,0.0055,–,–,"anti-lysozyme VHH D3-L11, wild type A79Y (protein) DVQLVESGGGSVQAGGSLRLSCAASGSTDSIEYMTWFRQAPGKAREGVAALYTHTGNTYYTDSVKGRFTISQDKAKNMYYLRMDSVKSEDTAIYTCGATRKYVPVRFALDQSSYDYWGQGTQVTVSS"
0.92,0.0049,–,–,"anti-lysozyme VHH D3-L11, wild type A79I (protein) DVQLVESGGGSVQAGGSLRLSCAASGSTDSIEYMTWFRQAPGKAREGVAALYTHTGNTYYTDSVKGRFTISQDKAKNMIYLRMDSVKSEDTAIYTCGATRKYVPVRFALDQSSYDYWGQGTQVTVSS"
10,0.0037,–,–,"anti-lysozyme VHH D3-L11, wild type A79C (protein) DVQLVESGGGSVQAGGSLRLSCAASGSTDSIEYMTWFRQAPGKAREGVAALYTHTGNTYYTDSVKGRFTISQDKAKNMCYLRMDSVKSEDTAIYTCGATRKYVPVRFALDQSSYDYWGQGTQVTVSS"
2.5,0.0036,–,–,"anti-lysozyme VHH D3-L11, wild type A79V (protein) DVQLVESGGGSVQAGGSLRLSCAASGSTDSIEYMTWFRQAPGKAREGVAALYTHTGNTYYTDSVKGRFTISQDKAKNMVYLRMDSVKSEDTAIYTCGATRKYVPVRFALDQSSYDYWGQGTQVTVSS"
